Test results taken from US20160282364.

Tested on: insulin

With “recombinant human IDE42-1019 (R&D Systems)” the “degradation of insulin by IDE (HTRF insulin assay, 0.4 µg/mL IDE, 10 ng/mL insulin, 30° C., 15 min)” value was “˜75% degradation of insulin”.
